The values below come from patent US20070072210A1 (published 2007).

The labels stand for the following.
B1: FLAG-tagged BAAT1 (full length) (other)
chain: MDPECAQLLPALCAVLVDPGQPVADDTCLEKLLDWFKTVTEGESSVVLLQEHPCLVELLSHVLKVQDLSSGVLSFSLRLAGTFAAQENCFQYLQQGELLPGLFGEPGPLGRATWAVPTVRSGWIQGLRSLAQHPSALRFLADHGAVDTIFSLQGDSSLFVASAASQLLVHVLALSMRGGAEGQPCLPGGDWPACAQKIMDHVEESLCSAATPKVTQALNVLTTTFGRCQSPWTEALWVRLSPRVACLLERDPIPAAHSFVDLLLCVARSPVFSSSDGSLWETVARALSCLGPTHMGPLALGILKLEHCPQALRTQAFQVLLQPLACVLKATVQAPGPPGLLDGTADDATTVDTLLASKSSCAGLLCRTLAHLEELQPLPQRPSPWPQASLLGATVTVLRLCDGSAAPASSVGGHLCGTLAGCVRVQRAALDFLGTLSQGTGPQELVTQALAVLLECLESPGSSPTVLKKAFQATLRWLLSSPKTPGCSDLGPLIPQFLRELFPVLQKRLCHPCWEVRDSALEFLTQLSRHWGGQADFRCALLASEVPQLALQLLQDPESYVRASAVTAMGQLSSQGLHAPTSPEHAEARQSLFLELLHILSVDSEGFPRRAVMQVFTEWLRDGHADAAQDTEQFVATVLQAASRDLDWEVRAQGLELALVFLGQTLGPPRTHCPYAVALPEVAPAQPLTEALRALCHVGLFDFAFCALFDCDRPVAQKSCDLLLFLRDKIASYSSLREARGSPNTASAEATLPRWRAGEQAQPPGDQEPEAVLAMLRSLDLEGLRSTLAESSDHVEKSPQSLLQDMLATGGFLQGDEADCY
notes: Transiently expressed in 293T cells; the clone used was IMAGE BC015632; also called FLAG-BAAT1; not shown: FLAG tag
B2: BAAT1 (endogenous, from human cell lysates) (other)
chain: B1 chain
notes: Endogenous cellular protein detected with the anti-BAAT1 antibody; also called endogenous BAAT1; hBAAT1
B3: GST-tagged BRCA1 BRCT domains, breast cancer-associated mutant Met1775Arg (other, UniProt P38398 1560-1863, looked up)
chain: GTPYLESGISLFSDDPESDPSEDRAPESARVGNIPSSTSALKVPQLKVAESAQSPAAAHTTDTAGYNAMEESVSREKPELTASTERVNKRMSMVVSGLTPEEFMLVYKFARKHHITLTNLITEETTHVVMKTDAEFVCERTLKYFLGIAGGKWVVSYFWVTQSIKERKMLNEHDFEVRGDVVNGRNHQGPKRARESQDRKIFRGLEICCYGPFTNRPTDQLEWMVQLCGASVVKELSSFTLGTGVHPIVVVQPDAWTEDNGFHAIGQMCEAPVVTREWVLDSVALYQCQELDTYLIPQIPHSHY
notes: domain: BRCT domains; also called M1775R; not shown: GST tag
B4: FLAG-tagged C-terminal BAAT1 (amino acids 176-821) (other)
chain: MRGGAEGQPCLPGGDWPACAQKIMDHVEESLCSAATPKVTQALNVLTTTFGRCQSPWTEALWVRLSPRVACLLERDPIPAAHSFVDLLLCVARSPVFSSSDGSLWETVARALSCLGPTHMGPLALGILKLEHCPQALRTQAFQVLLQPLACVLKATVQAPGPPGLLDGTADDATTVDTLLASKSSCAGLLCRTLAHLEELQPLPQRPSPWPQASLLGATVTVLRLCDGSAAPASSVGGHLCGTLAGCVRVQRAALDFLGTLSQGTGPQELVTQALAVLLECLESPGSSPTVLKKAFQATLRWLLSSPKTPGCSDLGPLIPQFLRELFPVLQKRLCHPCWEVRDSALEFLTQLSRHWGGQADFRCALLASEVPQLALQLLQDPESYVRASAVTAMGQLSSQGLHAPTSPEHAEARQSLFLELLHILSVDSEGFPRRAVMQVFTEWLRDGHADAAQDTEQFVATVLQAASRDLDWEVRAQGLELALVFLGQTLGPPRTHCPYAVALPEVAPAQPLTEALRALCHVGLFDFAFCALFDCDRPVAQKSCDLLLFLRDKIASYSSLREARGSPNTASAEATLPRWRAGEQAQPPGDQEPEAVLAMLRSLDLEGLRSTLAESSDHVEKSPQSLLQDMLATGGFLQGDEADCY
notes: Expressed in 293T cells; co-precipitated with BRCA1 by the anti BRCA1 21A1 antibody and blotted with anti FLAG; not shown: FLAG tag

Experiment [1] concerns the target T1, BRCA1 (endogenous, from human cell lysates) (human, UniProt P38398 1-1863).
T1 construct: Endogenous cellular protein immunoprecipitated with anti BRCA1 antibodies C-20 or 21A1; also called breast cancer susceptibility gene 1 protein; endogenous BRCA1
The experiment can be described thus: immunoprecipitation with anti BRCA1 21A1 from 293T cells, anti FLAG blot. From the text:
(§1) GST-BRCA1 fragments were precipitated with GSH beads and samples were immunoblotted with anti FLAG antibody. […] After immunoprecipitation with anti BRCA1 21A1 antibody, samples were immunoblotted with FLAG antibody. […] NS: non-specific signals. […] Two different anti BRCA1 antibodies (C-20 and 21A1) and anti ATM antibodies (N-17 and 2C1) were used for the assay.

Experiment [2] addresses T1, BRCA1 (endogenous, from human cell …). Nature of the experiment: co-immunoprecipitation of endogenous proteins from HeLa cells. As to the method: as §1
(§2) Co-Immunoprecipitation and GST Pull-Down Assays: HeLa or NMEs cells were lysed for 30 min in 500 ml of lysis buffer (50 mM Tris-HCl pH 7.5, 100 mM NaCl, 0.5% NP-40, 0.5% DOC, 5 mM EDTA, and protease inhibitors: 100 mg/ml PMSF, 2 mg/ml Aprotinin, 2 mg/ml Leupeptin). One milligram of total cell lysates was incubated with 10 mg/ml of ethidium bromide and the primary antibody for 3 h followed by incubation with either Protein A or Protein G agarose beads overnight at 4° C. The immunocomplexes were separated on SDS-PAGE gels and visualized by Western blotting. […] After pulldown with GSH beads, samples were separated in SDS-polyacrylamide gel and visualized by Western blotting.

For experiment [3], the target named is B1. The experiment can be described thus: GST pulldown from co-transfected 293T cells, anti FLAG blot. The procedure: as §1, §2

As to B1, in experiment [1], the binding result is given as “binds”.

Regarding B2, the binding result in experiment [2] is reported as “binds”.

Turning to B3, in experiment [3], the binding result was “no binding”.

B4: the binding result in experiment [1] is “binds”.
